Assay results published in patent publication US20110212106A1 (INSTITUTE FOR RESEARCH IN BIOSCIENCE, published 2011).

Biological target: T1, peptide … (HIV-1)
T1 construct: also called wt peptide
Assay: Pepscan ELISA

B1: HGN194 (antibody, V domains shown)
VH: EVQLVQSGAEVKKPGESLKISCYGSGYNFNDYWIGWVRQMPGKGLEWMGMIYPDDSDTKYSAAFEGQVTLSADKSISTAYLQWTSLRASDTATYYCARLDGDYADFDSWGQGTLVTVSS
VL: QSVLTQPPSVSAAPGQKVTISCSGTNSNLGDKFVSWYQQLPGTAPRLLIYDNDKRPSGIPDRFSGSKSGASATLAITGLQTGDEADYYCGTWDNSLSALFGGGTKLTVL
notes: also called HGN194.12
B1: binds.
